Experimental data taken from the DeepSol protein solubility set.

Assay: soluble on expression in E. coli; label from the status in PepcDB or PDB records

Row | Sequence | soluble on expression in E. coli
1 | MELQKALKEVREQKIAPVYLLIGTELYLTELFKTTLMKELLTEEDDQFNFFSFDMEETPLSAAIAEAETIPFFGDYRLVFVENPYFLTAERKTNGVEHDVNLLLNYLESPSPTTVLVFMASYEKLDERKKITKALKKNATVVDVNPMDEKAIRQYISQTIESEGYTIRSDAFDLLLQLTDLNLSKIMGELQKLYLYALETKTITRGAVQELVPKSLEHNVFDLTNEVLSGNSEKAVQLYEDLLLQGEETIKLNAILLNQIRLFLQTKILAKMGYQQANIADTLKVHPYRVKLALQQVRRFELSRLERLYDELVENDYRMKTGQMDKELLFQLFILKLTAQAK | not soluble
2 | MELSALTAVSPVDGRYGSKTIALREIFSEYGLLKYRTIVEIRWLQKLAATAEIAEVPAFSAEANQFLDDLAANFSEADALRIKEIERTTNHDVKAVEYFLKEKVADVPELHAVNEFFHFACTSEDINNTSHALMLKEARETVILPEIRNLIDAIKALAVEYRDIPLLSRTHGQPASPSTMGKEMANVAYRMERQYKQIENVEILAKINGAVGNYNAHLSAYPELDWHKFSEEFITESLGVTWNPYTTQIEPHDYIAELFDAVARFNTILIDFDRDVWGYIALGHFKQKTIAGEIGSSTMPHKVNPIDFENSEGNLGLANAVFGHLAQKLPISRWQRDLTDSTVLRNLGVGVGYAIIAYTSTLKGISKLEVNRDALLAELDKNWEVLAEPVQTVMRRYGIEKPYEKLKELTRGKRVDGEAMRNFIDGLELPEHEKARLKEMTPANYIGQAIELTDKL | not soluble
3 | MELTVKDIQTWLDNYSKVIEEKKDYLSELDTPIGDGDHGNNMARGMAEYKIAFDKKVPTTITETFKVLSMALISKVGGASGPLYGTAFMNMTKATKDLETISSPEQLKEIVQQGLAGIQMRGKAEPGDKTMVDVWAPVAEVIGTEQFNEEKIEQFAEATKDWVAKKGRASYLGERAIGHIDPGAASSALLFEELVKVINQ | not soluble
4 | MELVSVAALAENRVIGRDGELPWPSIPADKKQYRSRVADDPVVLGRTTFESMRDDLPGSAQIVMSRSERSFSVDTAHRAASVEEAVDIAASLDAETAYVIGGAAIYALFQPHLDRMVLSRVPGEYEGDTYYPEWDAAEWELDAETDHEGFTLQEWVRSASSR | soluble
5 | MELYETSPYFYQEPRFYDGENYLPVHLQGFEPPGYERTELTLSPEAPGPLEDKGLGTPEHCPGQCLPWACKVCKRKSVSVDRRRAATLREKRRLKKVNEAFEALKRSTLLNPNQRLPKVEILRSAIQYIERLQALLSSLNQEERDLRYRGGGGPQPGVPSECSSHSASCSPEWGSALEFSANPGDHLLTADPTDAHNLHSLTSIVDSITVEDVSVAFPDETMPN | soluble
6 | MEMGMKRIANECFFAWVESEIKSGRSVKFRVKGNSMMPLLRNGKDEVVVGPYDKEELKLFDVILFRQTDRYVLHRIIQKRDSRYLMQGDGVCRFYEECEDTDIIGVVRKVCRPSGKKIETDSMCWRLESRLWLGLGGCRGMVLRVLNRLGCCLLF | not soluble
7 | MEMTMEQEPLNGWPQPYRLLDAQPYWDALQDEKLTYQQCVACRQSVWPAHSRCPHCSSDQLVWQASSGRATVYSFSTVTRGPTPVWASIVPYTVGFVEMDEGYFLFTQIEGPPGSIGVGDKVQVRFVRRGAQILPVFVSADLPA | not soluble
8 | MEMTNAQRLILSNQYKMMTMLDPTNAERYRRLQTIIERGYGLQMRELDREFGELTEETCRTIIDIMEMYHALHVSWTNLKDTQAIDERRVTFLGFDAATEARYLGYVRFMVNIEGRYTHFDAGTHGFNAQTPMWEKYQRMLNVWHACPRQYHLSANEINQIINA | not soluble
9 | MENISDLWNSALKELEKKVSKPSYETWLKSTTAHNLKKDVLTITAPNEFARDWLESHYSELISETLYDLTGAKLAIRFIIPQSQAEEDIDLPPVKPNPAQDDSAHLPQSMLNPKYTFDTFVIGSGNRFAHAASLAVAEAPAKAYNPLFIYGGVGLGKTHLMHAIGHYVIEHNPNAKVVYLSSEKFTNEFINSIRDNKAVDFRNKYRNVDVLLIDDIQFLAGKEQTQEEFFHTFNALHEESKQIVISSDRPPKEIPTLEDRLRSRFEWGLITDITPPDLETRIAILRKKAKAEGLDIPNEVMLYIANQIDSNIRELEGALIRVVAYSSLINKDINADLAAEALKDIIPNSKPKIISIYDIQKAVGDVYQVKLEDFKAKKRTKSVAFPRQIAMYLSRELTDSSLPKIGEEFGGRDHTTVIHAHEKISKLLKTDTQLQKQVEEINGILKLEHHHHHH | not soluble
10 | MENIVNRTYTRIGQLLKQDISQGIYSIGDKLPTEREISEKFGVSRTIVREAMVMLEVEKLVEVKKGSGVYVVRTPESIHMEHSDLPDVGPFELLQARQLLESSIAEFAALQATKKDILNLKQILNREKELLTQNQDDYSADKDFHLALAEITQNDVLVKLQEQLWQYRFNSAMWAQLHSRILQNDYHHLWIEDHQTILSAIQKKNANEARKAMWQHLENVKVKLFELSDVEDPHFDGYLFNTNPVVVGI | not soluble
11 | MENKEISYEIIDFSGETNVQFRTSVDPGSYIPTHWHRAIEIIYMQEGSLDVIVESESFTIYKGDCILVNGNVLHSTKCTAPNTAILLQIPLNFMEKYIPNLGQLIFLWDYRTEDPVKKTKLMMLKTTLEQLQVINDIQPDGYLLRFNSLIFELMFQLYHNFSVQVFPQDINHKKKEMDRLDP | not soluble
12 | MENPDSAFLLFRNAPRLPLATMHTPLCGDSHQPDFAFRKPARDALLRPWNGRNHRCGLQDGREICQGQLPAHQKSYWSDCAALPRLFRAYGGAVVRGFLIVGNKAFTQPFSLNDLPGAGRMDVLCRCTSQALFISHGIRRDVEVYLLLLGPPSPPKSILIKGDEVRRMSPDERNVAGHIKKALAVECGKSWKKVHSGVYVSRKGLEELIEELSEKYSIIYLKEDGVDISNAQLPPNPLFVIGDHEGLTEEQEKVVERYAALKLSLSPLSLLAEQCVVIAHHHLDRLQF | not soluble
13 | MENSDDIRLIVKIAQLYYEQDMTQAQIARELGIYRTTISRLLKRGRDQGMVTIAINYDYNENLWLEQQLKQKFGLKDVVVVSGNDEDEETQLAMMGLHGAQLLDRLLEPGDIVGFSWGRAVSALVENLPQAGQSRQLICVPIIGGPSGKLESRYHVNTLTYSAAAKLKGESHLADFPALLDNPLIRNGIMQSQHFKTISAYWDNLDIALVGIGSPAIRDGANWHAFYGGEESDDLNARQVAGDICSRFFDIHGAMVETNMSEKTLSIEMNKLKQARYSIGIAMSEEKYSGIIGALRGKYINCLVTNSSTAELLLK | soluble
14 | MEPPKPEYAPTAHSRYNSQYFYWLFLDLFHLEPSMKLFPSLATLTLCSLMSAPLLAAEQAPELTGCAAKRQAIMNQIEQAKAHGNSNQQAGLERALSEVTAHCTDASLKKERENKVLEAKHEVSRRQADLEKAMKKGDSEKINKRKDKLAESRKELQQALDELDKLEHHHHHH | not soluble
15 | MEQLRGLYPPLAAYDSGWLDTGDGHRIYWELSGNPNGKPAVFIHGGPGGGISPHHRQLFDPERYKVLLFDQRGCGRSRPHASLDNNTTWHLVADIERLREMAGVEQWLVFGGSWGSTLALAYAQTHPERVSEMVLRGIFTLRKQRLHWYYQDGASRFFPEKWERVLSILSDDERKDVIAAYRQRLTSADPQVQLEAAKLWSVWEGETVTLLPSRESASFGEDDFALAFARIENHYFTHLGFLESDDQLLRNVPLIRHIPAVIVHGRYDMACQVQNAWDLAKAWPEAELHIVEGAGHSYDEPGILHQLMIATDRFAGK | soluble
16 | MEQPLMPPAPPSYVASQSQAITTQPGASIPMPPGTIVIEALPPVEGIPGGLEYLAYLDTIMVHQFLEPIEIRTGWETKNKYAIKKICYQKRQCCGAERAFVMHIVDNFNKEVLTVKRERHCCGCCCWLGSTNKSTIESPSMGLLGTVLLGHGCTNSHCNVLDKDEELLFLVDGQGCCTYCCCDDKAFTIKTPDTYKRIGAITKKWGGIIREAYTDADTFAVTFPADLDVKAKALLLATTILQSLRVVVEVEKLEIEIFICCALFMK | not soluble
17 | MERDTVVKEVVEALKIFSRDIRTQIDEMGSQLRAEIQDTANQLRAEIQDTANQLRAEMQETANQLRAEMQETANQLRAEMQQFRAEVNERFDRLEQKFAGLRVELTETQETVHFLASKTIQHEKKLHHLAKQLESIR | not soluble
18 | MERMSDSADKPIDNDAEGVWSPDIEQSFQEALAIYPPCGRRKIILSDEGKMYGRNELIARYIKLRTGKTRTRKQVSSHIQVLARRKSRDFHSKLKDQTAKDKALQHMAAMSSAQIVSATAIHNKLGLPGIPRPTFPGGPGFWPGMIQTGQPGSSQDVKPFVQQAYPIQPAVTAPIPGFEPTSAPAPSVPAWQGRSIGTTKLRLVEFSAFLEQQRDPDSYNKHLFVHIGHANHSYSDPLLESVDIRQIYDKFPEKKGGLKELFGKGPQNAFFLVKFWADLNCNIQDDAGAFYGVSSQYESSENMTVTCSTKVCSFGKQVVEKVETEYARFENGRFVYRINRSPMCEYMINFIHKLKHLPEKYMMNSVLENFTILLVVTNRDTQETLLCMACVFEVSNSEHGAQHHIYRLVKD | soluble
19 | MERRSTDLLVLGAGVAGVYAALAAEERGARVLLVSKDPLPAGSTPWAQGGVAFPVGEEDLEAHLRDTLVAGRGLVEEGVARSILEEAPRHLERLRAFGLPFHPEPTREGGHSRARVFHLGGDRSGLLLLEGLLKRLSTPVVPAQALSLLVSGNRVAGALLWGPGGLWEVRAGAVLLATGGFGRLFPVTTNPHGATGDGMALAWRAGAVLRDLEFVQFHPTALPNGALVSEACRGEGALLLNAHGERFMPRYDPLAELAPRDVVARAVFRERERTGGVYLDLRPIPHLEERFPTVVAQARALGLDPLRAPLPVAPAAHYAMGGVRTDAFGHTGIPGLFAAGEVASTGFHGANRLASNSLLEGLVVGWRAALRALEDLAFPPRATPLPALAAPPEAVASLREEAGEALGVVRRKETLLAFLRRAEAVPLEEVEQASRDRLEAGSLLLLMRLLARAALAREESRGAHFREDFPLEDRPRHSLFQGWRLGFLPVGVE | soluble
20 | MERVSITERPDWRDKATEYGFNFHTMYGEPYWCEDAYYKLTLAQVEKLEDVTAELHQMCLKVVERVIASDELMTKFRIPKHTWGFVRQSWQTQQPSLYSRLDLAWDGIGEPKLLENNADTPTSLYEAAFFQWIWLEDQINAGNLPEGSDQFNSLQEKLIERFAELREQYGFQLLHLTCCRDTVEDRGTIQYLQDCAAEAEIATEFLYIDDIGLGEKGQFTDLQDQVIANLFKLYPWEFMLREMFSTKLEDAGVRWLEPAWKSIISNKALLPLLWEMFPDHPNLLPAYFAEDEHPPMDKYVVKPIFSREGANVSIIENGKTIESVEGPYGEEGMIVQQFYPLPKFGDSYTLIGSWLINDQPAGIGIREDRALITQDLSRFYPHIFVEG | not soluble
21 | MESIVDKQAVKHFLLQLQDKICQQLEATDGQAQFIEDAWQREPGEKLGGGGRTRVMREGAVFEQGGVNFSHVFGEQMPASATAHRPELAGRRFEAMGVSLVMHPKNPYVPTSHANVRFFIAEKEGEAPIWWFGGGFDLTPFYPFVEDGQHWHQTAKNICAPFGSEIYNEHKAWCDRYFYLPHRNETRGIGGLFFDDLNEWSFEQCFAYMQAVGEGYTQAYVPIVEKRKNTPFTERERQFQLYRRGRYVEFNLVLDRGTLFGLQTGGRTESILMSMPPLARWEYAYQPQAGTPEAKLSEFLVPREW | not soluble
22 | MESMLLPKYFDILIVDDIPEHIDVAVQVLRDSNFKIRVATDGNTALKLIYQQKPDLILLDIYMPEMDGFELCRLIKNTPDLKNIPVIFLTSFSDEESIRKGFESGGQDYVVKPFNASELLSRVKTHLMLKCQAESLKEANKELDSFCYTVAHDLKSPLLSLNKLVELLVSDHLNQLDSAGKELVYNIREKSSEIIHTVDRLLEFSKMCEMQVNFEIIDLNELFTEVCNELKSLEPQRDIRIHIQPLPKVYGDRLLMRLLISNILSNAFKYTRNRQTAIIEIQSSEDGNEYVFFVKDNGAGFDMKYSSRLFGVFQRLHSKDEFEGSGVGLAICQRILKRHNGRAWMTGEIDKGATFFFTLPKFE | soluble
